The term IC50 denotes the midpoint of a concentration-inhibition curve. A high value points to weaker potency in that assay.

Test [1] concerns the target p34^cdc2 cell cycle regulatory kinase (Homo sapiens (Human)) (UniProt P06493). The test can be described thus: IC50 column of Table 1 (ELISA based competition, competitor plate-bound p107 30mer). Background: An ELISA detects its analyte on a solid surface through an enzyme-linked reagent.
Test [2] shares this target. The experiment in a line: Western blot densitometry of p34^cdc2 bound to p107 30mer-sepharose against immunoprecipitated p34^cdc2.
Test [3] shares this target.

Substance p107 NC5mer pentapeptide (CAFYI) showed an IC50 in test [1] of 13 µM.

“p107 30 amino acid peptide (residues 692-721 of p107, encompassing alpha-helix II)” registered an amount of p34^cdc2 associated, relative to that within the immune complexes in test [2] of 50 times. In test [3], this substance registered a histone H1 kinase specific activity of p34^cdc2 bound to p107 30mer-sepharose of 1.4%.

The record behind these values is patent US5625031.
